In patent publication US20210337838A1, “RECOMBINANT EXPRESSION OF FUMONISIN AMINE OXIDASE” (priority 2018, published 2021):

Assay: Amplex red assay of RID+AO enzyme
Type: biochemical
Conditions: 80 nM enzyme, 25 μM FB1, 50 mM HEPES (pH 7), 150 mM NaCl

B1: RID+AO: GST-tagged 597 amino acid A. niger enzyme with N-terminal Reactive Intermediate Deaminase domain and C-terminal amine oxidase domain (protein)
chain: MAPAPVLATSAYYAPGVVSSASKYLHVSGQPGTIEGTAPADYNSQIHLALVNLHRVLAATGATPRDVVKLTLYIVDYDPNNRLHTRPLQTWLAGHKPAITLVPVPQLAVPDWKFEIEATVAVPDSIPASLSLPSPTETTDVLVIGAGLSGLMAAETTLQSGHSCIVLEGRDRVGGKTWTCPLPSGTGVVDLGAAWINDTNQSMMYELARRAGADLIEQNTTGNCLLQREDGAITAFPYGQTPCITPQIVKEIEAIRDTAEQDCQSFSTSRPQSPALDSLSFLAYLHSRNASPIAAANASVWTRAMLGQEPQDISALYFLNYCKSGGGLLQMRSDRKHGAQYLRVRQGTQIFAKTLAESLPTDTIRFGQRVVGITQVQKGVNYVQTESGLVVKARKVICSVPTPVLKTIKFEPQLPAAKQLLVDSFRYGYYTKVMLSFRTAWWADRGFCGLAQSFVGPASIYRDTSSPEDGKWVLTAFLAGDAGRNWSALGSQRERELALLEQLGAIYGDKDLPKREFVEALGHEWSTEELSGWGCPCPALPPGVLTLAGDALREPFRDVHFVGTETAEEWKGYMEGAVRSGKRGAAEAVKGLTRSQL
modifications: GST tag; Aspergillus niger
- activity towards fumonisins: no activity
